Results as given in patent publication US20250128187A1.

Molecular target: streptavidin immobilized on membrane (streptavidin modified membrane prepared according to FIG. 10) (Streptomyces avidinii) (UniProt P22629)
Experiment: depletion from solution; 0.0055 mL streptavidin membrane incubated in 0.4 mL of 1 mg/mL biotin-conjugate for 24 hours

streptavidin immobilized on membrane (streptavidin modified membrane prepared according to FIG. 10) (Streptomyces avidinii), sequence (P22629 37-163 limits assumed): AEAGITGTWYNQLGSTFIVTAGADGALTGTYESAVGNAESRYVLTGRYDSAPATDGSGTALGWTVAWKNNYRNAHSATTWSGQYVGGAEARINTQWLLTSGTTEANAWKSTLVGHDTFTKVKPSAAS

Substance	Amount Immobilized (mg biotin-conjugate/mL membrane) (mg biotin-conjugate/mL membrane)
Biotin-BSA (from UniProt P02769 25-607)	38.6
Biotin-Mal 1	9.71
